Results as given in patent US20090117097A1 (Chugai, published 2009).

T1: mouse Mp1 expressed on CHO cells (CHO-mouse Mp1) (mouse, UniProt Q08351 26-625)
T1 construct: whole, on cells; also called mouse Mp1-expressing CHO cell line
T1 sequence (looked up): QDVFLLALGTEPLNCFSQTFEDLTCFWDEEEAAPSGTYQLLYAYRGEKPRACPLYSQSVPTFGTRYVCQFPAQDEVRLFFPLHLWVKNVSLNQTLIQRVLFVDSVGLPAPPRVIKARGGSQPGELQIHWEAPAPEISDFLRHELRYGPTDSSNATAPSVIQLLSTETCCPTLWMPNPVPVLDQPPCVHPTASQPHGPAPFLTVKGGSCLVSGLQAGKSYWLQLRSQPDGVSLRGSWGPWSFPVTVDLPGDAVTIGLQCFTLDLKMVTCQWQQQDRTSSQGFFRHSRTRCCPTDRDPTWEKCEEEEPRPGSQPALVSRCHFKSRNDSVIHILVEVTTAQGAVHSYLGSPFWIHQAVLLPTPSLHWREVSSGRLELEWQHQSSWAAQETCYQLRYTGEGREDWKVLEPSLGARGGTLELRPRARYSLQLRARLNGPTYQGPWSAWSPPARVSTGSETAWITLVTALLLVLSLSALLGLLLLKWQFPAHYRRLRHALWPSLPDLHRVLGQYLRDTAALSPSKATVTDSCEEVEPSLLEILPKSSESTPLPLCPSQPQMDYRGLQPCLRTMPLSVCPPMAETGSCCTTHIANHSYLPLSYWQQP

T2: human Mp1 expressed on CHO cells (CHO-human Mp1) (human, UniProt P40238 26-635)
T2 construct: whole, on cells; also called human Mp1-expressing CHO cell line
T2 sequence (looked up): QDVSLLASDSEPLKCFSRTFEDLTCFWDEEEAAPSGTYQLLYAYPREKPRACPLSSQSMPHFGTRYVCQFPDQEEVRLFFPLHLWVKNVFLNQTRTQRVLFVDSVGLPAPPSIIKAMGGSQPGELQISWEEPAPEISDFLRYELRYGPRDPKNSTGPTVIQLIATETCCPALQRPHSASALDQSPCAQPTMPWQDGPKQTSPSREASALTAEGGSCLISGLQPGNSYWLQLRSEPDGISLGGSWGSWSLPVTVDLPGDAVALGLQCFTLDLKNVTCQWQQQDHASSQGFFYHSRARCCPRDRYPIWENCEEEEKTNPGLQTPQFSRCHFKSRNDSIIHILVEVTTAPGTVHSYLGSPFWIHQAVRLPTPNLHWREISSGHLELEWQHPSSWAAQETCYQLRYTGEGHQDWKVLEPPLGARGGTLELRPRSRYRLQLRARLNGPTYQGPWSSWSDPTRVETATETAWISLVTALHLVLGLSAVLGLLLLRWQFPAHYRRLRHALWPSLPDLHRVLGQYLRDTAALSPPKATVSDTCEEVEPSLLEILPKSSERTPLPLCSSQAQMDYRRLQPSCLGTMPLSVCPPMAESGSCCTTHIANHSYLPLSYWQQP

T3: cynomolgus monkey Mp1 expressed on CHO cells (CHO-monkey Mp1) (cynomolgus monkey, UniProt P40238 26-635 (human entry))
T3 construct: also called monkey Mp1-expressing CHO cell line
T3 chain: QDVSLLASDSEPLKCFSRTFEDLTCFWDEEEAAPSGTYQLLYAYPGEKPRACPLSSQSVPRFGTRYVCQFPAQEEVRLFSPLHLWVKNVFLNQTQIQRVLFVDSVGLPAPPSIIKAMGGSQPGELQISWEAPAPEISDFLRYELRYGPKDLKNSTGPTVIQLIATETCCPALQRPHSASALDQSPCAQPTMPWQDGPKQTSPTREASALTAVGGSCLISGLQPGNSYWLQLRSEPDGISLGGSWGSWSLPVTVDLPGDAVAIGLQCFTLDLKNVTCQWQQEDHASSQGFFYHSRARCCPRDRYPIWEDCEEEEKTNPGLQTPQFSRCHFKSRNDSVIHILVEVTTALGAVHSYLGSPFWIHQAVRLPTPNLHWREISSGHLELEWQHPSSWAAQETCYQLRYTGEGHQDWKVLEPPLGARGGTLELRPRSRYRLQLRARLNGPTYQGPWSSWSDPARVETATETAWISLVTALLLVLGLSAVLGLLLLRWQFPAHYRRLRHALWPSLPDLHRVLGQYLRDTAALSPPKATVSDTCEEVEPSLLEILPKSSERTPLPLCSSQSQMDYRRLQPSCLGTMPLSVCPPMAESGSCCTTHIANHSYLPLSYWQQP

T4: human Mp1-IgG Fc fusion protein (human, UniProt P40238 26-491)
T4 construct: range 26-491; Expressed in CHO-DG44 with a 19-amino acid signal peptide from a human IgG H chain variable region, left out here; also called hMp1-Fc; hMPL-Fc; not shown: Fc region of human IgG-gamma1 (a region downstream of Asp 216)
T4 sequence: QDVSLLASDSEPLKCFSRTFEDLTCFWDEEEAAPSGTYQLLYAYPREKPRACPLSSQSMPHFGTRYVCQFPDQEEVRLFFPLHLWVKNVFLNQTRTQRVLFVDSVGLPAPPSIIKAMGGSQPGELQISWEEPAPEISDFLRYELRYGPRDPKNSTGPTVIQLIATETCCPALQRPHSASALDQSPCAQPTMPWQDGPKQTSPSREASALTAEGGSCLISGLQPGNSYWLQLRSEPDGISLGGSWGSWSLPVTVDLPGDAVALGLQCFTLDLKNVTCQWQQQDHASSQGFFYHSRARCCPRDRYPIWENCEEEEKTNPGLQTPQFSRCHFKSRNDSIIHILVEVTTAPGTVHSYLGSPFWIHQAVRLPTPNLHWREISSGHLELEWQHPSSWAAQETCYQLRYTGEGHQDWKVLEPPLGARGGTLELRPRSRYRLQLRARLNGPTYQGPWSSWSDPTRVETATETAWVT

T5: GST fusion protein containing MG4 (Gln26 to Pro106) of human Mp1 (human, UniProt P40238 26-106)
T5 construct: range 26-106; not shown: glutathione S-transferase (GST) encoded by vector pGEX-4T-3 (Amersham Biosciences)
T5 sequence (looked up): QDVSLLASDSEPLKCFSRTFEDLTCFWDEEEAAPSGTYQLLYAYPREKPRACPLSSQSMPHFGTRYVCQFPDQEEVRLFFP

T6: GST fusion protein containing MG3 (Gln26 to Ala189) of human Mp1 (human, UniProt P40238 26-189)
T6 construct: range 26-189; not shown: glutathione S-transferase (GST) encoded by vector pGEX-4T-3 (Amersham Biosciences)
T6 sequence (looked up): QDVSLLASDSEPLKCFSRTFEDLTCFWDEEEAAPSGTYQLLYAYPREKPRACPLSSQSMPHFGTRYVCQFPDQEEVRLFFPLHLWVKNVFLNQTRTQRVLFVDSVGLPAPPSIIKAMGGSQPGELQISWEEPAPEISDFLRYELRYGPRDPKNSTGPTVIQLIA

T7: GST fusion protein containing MG8 (Gln26 to Pro217) of human Mp1 (human, UniProt P40238 26-217)
T7 construct: range 26-217; not shown: glutathione S-transferase (GST) encoded by vector pGEX-4T-3 (Amersham Biosciences)
T7 sequence (looked up): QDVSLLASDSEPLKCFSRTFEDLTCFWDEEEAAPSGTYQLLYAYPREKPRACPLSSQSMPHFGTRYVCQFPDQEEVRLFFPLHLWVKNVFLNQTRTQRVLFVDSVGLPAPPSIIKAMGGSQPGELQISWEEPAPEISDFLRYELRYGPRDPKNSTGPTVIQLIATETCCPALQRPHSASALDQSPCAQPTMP


Tests used:
[1] = target: T1, mouse Mp1 expressed on CHO cells …; test: flow cytometry on CHO cells expressing Mp1
[2] = target: T2, human Mp1 expressed on CHO cells …; test: flow cytometry on CHO cells expressing Mp1, detection with anti-FLAG M2 and FITC anti-mouse IgG
Experimental: (§1) CHO-human Mp1, CHO-monkey Mp1, and CHO-mouse Mp1 cells were recovered and suspended in FACS buffer (1% FBS/PBS) to a final concentration of 1×10⁶ cells/mL. Cell suspensions were aliquoted at 100-μL/well into the Multiscreen-HV Filter Plates (Millipore). After centrifugation, the supernatant was removed. An appropriate concentration of diabody or sc(Fv)2 was added into each well and incubated on ice for 30 min. The cells were washed once with 200 μL of FACS buffer, and incubated on ice for 30 min following the addition of 10 μg/mL ANTI-FLAG® M2 Monoclonal Antibody (Sigma-Aldrich). The cells were then washed once with 200 μL of FACS buffer, and a 100×-diluted FITC-labeled anti-mouse IgG antibody (Beckman Coulter) was added to the plate. The plate was incubated on ice for 30 min. After centrifugation, the supernatant was removed. The cells were suspended in 400 μL of FACS Buffer, and then analyzed by flow cytometry using EPICS ELITE ESP (Beckman Coulter). An analysis gate was set on the forward and side scatters of a histogram to include viable cell populations.
(§2) The binding activity of the purified VB22B sc(Fv)2 to various Mp1 molecules expressed in CHO cells was determined.

[3] = target: T3, cynomolgus monkey Mp1 expressed on CHO …; test: as above
Experimental: as §1, §2

[4] = target: T3, cynomolgus monkey Mp1 expressed on CHO …; test: flow cytometry on CHO cells expressing Mp1
[5] = target: T4, human Mp1-IgG Fc fusion protein; test: SPR (Biacore 2000), hMp1-Fc amine-coupled to CM5 chip, VB22B IgG injected at 1.25 to 20 ug/mL
Experimental: Since the anti-human Mp1 antibody VB22B binds to soluble recombinant Mp1, kinetic analyses of the antigen-antibody reaction between VB22B IgG and human Mp1-IgG Fc fusion protein were carried out as described in Example 1.4. The Sensor Chip CM5 (Biacore) was placed in Biacore 2000 (Biacore), and human Mp1-IgG Fc fusion protein was immobilized onto the chip by amine-coupling methods. Then, 1.25 to 20 μg/mL of VB22B IgG solution was prepared using HBS-EP Buffer (Biacore), and injected over the chip surface for 2 min to reveal the binding region. Then, HBS-EP Buffer was injected over the chip surface for 2 min to reveal the dissociation region. VB22B IgG bound to the human Mp1-IgG Fc fusion protein on the sensor chip was removed by injecting 10 mM NaOH over the sensor chip for 15 sec, and the chip was recovered. HBS-EP Buffer was used as the running buffer, and the flow rate was 20 μL/min. Using the BIAevaluation Version 3.1 (Biacore) software, the reaction rate constant at each concentration was calculated from the sensorgrams.

[6] = target: T5, GST fusion protein containing MG4 …; test: Western blotting of GST fusion proteins
Experimental: (§3) Since the anti-human Mp1 antibody VB22B can be used for Western blotting, a GST-fusion protein containing a partial sequence of human Mp1 was constructed for VB22B epitope analysis. MG1 (Gln26 to Trp491) and MG2 (Gln26 to Leu274) regions were each amplified by PCR, and cloned into pGEX-4T-3 (Amersham Biosciences) to be expressed as GST fusion proteins. The resulting plasmid DNAs were transformed into DH5α to give transformants. A final concentration of 1 mM IPTG was added to the transformants in their logarithmic growth phase to induce the expression of GST fusion proteins. The bacterial cells were harvested after two hours of incubation. The cells were lysed by sonication. The lysates were centrifuged in XL-80 Ultracentrifuge (Beckman, Rotor 70.1Ti) at 35,000 rpm for 30 min. The culture supernatants were removed, and then the fusion proteins were purified using GST Purification Modules (Amersham Biosciences). The samples were separated by 10%-SDS-PAGE, and then transferred onto a PVDF membrane. The membrane was analyzed by the murine antibody VB22B in Western blotting.
(§4) Then, GST fusion proteins containing the respective regions of human Mp1: MG3 (Gln26 to Ala189), MG4 (Gln26 to Pro106), MG5 (Gln26 to Glu259), and MG6 (Gln26 to Gly245) were prepared and analyzed by Western blotting using the same procedure described above. […] In addition, GST was fused with MG7 (Gln26 to Ala231) and MG8 (Gln26 to Pro217) to prepare GST fusion proteins.

[7] = target: T6, GST fusion protein containing MG3 …; test: Western blotting of GST fusion proteins
Experimental: as §3, §4

[8] = target: T7, GST fusion protein containing MG8 …; test: Western blotting of GST fusion proteins
Experimental: as §3, §4

binding result [1] | binding result [2] | binding result [3] | binding result [4] | Kd [5] | binding result [6] | binding result [7] | binding result [8] | Binder
no binding | binds | binds |  |  |  |  |  | Murine VB22B sc(Fv)2 (scFv, Single chain sc(Fv)2, VH-(Gly4Ser)3-VL-(Gly4Ser)3-VH-(Gly4Ser)3-VL, with a FLAG tag (detected with anti-FLAG M2); also called mVB22B) scFv: QVQLQQSGPELVKPGASVKISCKASGYAFTNSWMNWVKQRPGKGLEWIGRIYPGDGETIYNGKFRVKATLTADKSSSTAYMDISSLTSEDSAVYFCARGYDDYSFAYWGQGTLVTVSAGGGGSGGGGSGGGGSDIVMTQAAPSIPVTPGESVSISCRSSKSLLHSNGNTYLYWFLQRPGQSPQLLIYRMSNLASGVPDRFSGSGSGTAFTLRISRVEAEDVGVYYCMQHIEYPFTFGSGTKLEIKGGGGSGGGGSGGGGSQVQLQQSGPELVKPGASVKISCKASGYAFTNSWMNWVKQRPGKGLEWIGRIYPGDGETIYNGKFRVKATLTADKSSSTAYMDISSLTSEDSAVYFCARGYDDYSFAYWGQGTLVTVSAGGGGSGGGGSGGGGSDIVMTQAAPSIPVTPGESVSISCRSSKSLLHSNGNTYLYWFLQRPGQSPQLLIYRMSNLASGVPDRFSGSGSGTAFTLRISRVEAEDVGVYYCMQHIEYPFTFGSGTKLEIK
no binding |  |  | binds | 1.67 nM | no binding | no binding | no binding | anti-human Mp1 antibody VB22B (VB22B IgG) (antibody, V domains shown, Mouse monoclonal IgG purified from hybridoma supernatant; They were cloned with primers complementary to the mouse IgG2b and kappa constant regions; also called murine antibody VB22B) VH: QVQLQQSGPELVKPGASVKISCKASGYAFTNSWMNWVKQRPGKGLEWIGRIYPGDGETIYNGKFRVKATLTADKSSSTAYMDISSLTSEDSAVYFCARGYDDYSFAYWGQGTLVTVSA VL: DIVMTQAAPSIPVTPGESVSISCRSSKSLLHSNGNTYLYWFLQRPGQSPQLLIYRMSNLASGVPDRFSGSGSGTAFTLRISRVEAEDVGVYYCMQHIEYPFTFGSGTKLEIK
